Measurements published in article PMC9958085, “A novel mechanism underlying allosteric regulation of ADAMTS-13 revealed by hydrogen−deuterium exchange plus mass spectrometry” (Research and Practice in Thrombosis and Haemostasis, 2022).
Values belong to the binder of their own block, whether it stands above or below them.

Tests used:
[1] = target: T1, ADAMTS-13 CUB domain fragment; assay: SPR; CUB fragment immobilised on a CM5 chip through amine-coupling; N-terminal fragment perfused at 30 μl/min for 120 s, dissociation 300 s; KD from maximal RU as a function of concentration (0-1.0 μM), Prism 8.0; settings: both partners purified
T1 chain: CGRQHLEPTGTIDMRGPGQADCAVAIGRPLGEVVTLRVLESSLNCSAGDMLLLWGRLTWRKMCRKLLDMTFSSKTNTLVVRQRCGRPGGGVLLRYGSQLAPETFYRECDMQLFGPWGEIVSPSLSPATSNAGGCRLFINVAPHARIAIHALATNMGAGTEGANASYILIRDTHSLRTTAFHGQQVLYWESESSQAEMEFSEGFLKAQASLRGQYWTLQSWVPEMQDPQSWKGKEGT

[2] = target: T2, N-terminal ADAMTS-13 fragment MDTCS (aa1-685) (UniProt Q76LX8 30-685); assay: as above; settings: both partners purified
T2 construct: signal peptide in the construct; ADAMTS-13, N-terminal fragment MDTCS (metalloprotease, disintegrin-like domain, first TSP1 repeat, cysteine-rich and spacer domain), aa1-685; The signal peptide and propeptide are probably removed on secretion (surmise); also called ADAMTS-13 variant truncated after spacer domain; source: Drosophila (S2) cell line, purified
T2 sequence (looked up): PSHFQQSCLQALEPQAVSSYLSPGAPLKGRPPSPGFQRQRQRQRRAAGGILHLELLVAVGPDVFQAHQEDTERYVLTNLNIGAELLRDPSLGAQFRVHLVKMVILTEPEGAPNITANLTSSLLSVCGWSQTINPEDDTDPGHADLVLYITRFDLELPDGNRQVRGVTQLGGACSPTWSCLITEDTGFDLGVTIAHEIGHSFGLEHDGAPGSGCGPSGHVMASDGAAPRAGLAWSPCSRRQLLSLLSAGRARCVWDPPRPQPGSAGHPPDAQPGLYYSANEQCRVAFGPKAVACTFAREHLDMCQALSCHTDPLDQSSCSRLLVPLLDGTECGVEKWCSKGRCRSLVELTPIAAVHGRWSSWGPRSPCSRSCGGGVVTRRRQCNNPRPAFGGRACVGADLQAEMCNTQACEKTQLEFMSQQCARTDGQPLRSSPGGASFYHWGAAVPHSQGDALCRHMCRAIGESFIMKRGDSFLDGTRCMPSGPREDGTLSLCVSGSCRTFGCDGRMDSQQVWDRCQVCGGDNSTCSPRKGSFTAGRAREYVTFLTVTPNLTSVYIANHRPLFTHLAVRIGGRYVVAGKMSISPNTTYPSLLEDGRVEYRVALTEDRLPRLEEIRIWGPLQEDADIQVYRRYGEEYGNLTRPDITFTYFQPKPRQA

Kd [1]: 460 nM
B1: ADAMTS-13 construct consisting of a disintegrin, the first thrombospondin type 1 repeat, a cysteine-rich and a spacer domain (DTCS) (domain or fragment)
chain: RPQPGSAGHPPDAQPGLYYSANEQCRVAFGPKAVACTFAREHLDMCQALSCHTDPLDQSSCSRLLVPLLDGTECGVEKWCSKGRCRSLVELTPIAAVHGRWSSWGPRSPCSRSCGGGVVTRRRQCNNPRPAFGGRACVGADLQAEMCNTQACEKTQLEFMSQQCARTDGQPLRSSPGGASFYHWGAAVPHSQGDALCRHMCRAIGESFIMKRGDSFLDGTRCMPSGPREDGTLSLCVSGSCRTFGCDGRMDSQQVWDRCQVCGGDNSTCSPRKGSFTAGRAREYVTFLTVTPNLTSVYIANHRPLFTHLAVRIGGRYVVAGKMSISPNTTYPSLLEDGRVEYRVALTEDRLPRLEEIRIWGPLQEDADIQVYRRYGEEYGNLTRPDITFTYFQPKPRQA
modifications: disintegrin start by convention, end 685 from printed MDTCS limit; HEK-293 expressed (likely glycosylated) / CUB1+CUB2 taken from the conventional CUB1 start to the C-terminus; HEK-293 expressed …

Kd [2]: 330 nM
B2: ADAMTS-13 CUB domain fragment (domain or fragment)
chain: T1 chain
modifications: CUB1+CUB2 taken from the conventional CUB1 start to the C-terminus; HEK-293 expressed (likely N-glycosylated); amine-coupled to CM5 chip
